In series [1] the test system is KRAS wt pancreatic ductal adenocarcinoma with ATP1B1-NRG1 gene fusion. Nature of the series: Compassionate access case, MoST program. In kind it is in vivo, human. Here is the method:
FIGS. 10A-10B are representative computed tomography (CT) images of a liver metastasis in a patient with KRAS WT pancreatic cancer that harbors an ATP1B1-NRG1 gene fusion. The patient was treated with seribantumab.
In brief, patients with advanced solid tumors of any histology undergo molecular screening. Genomic alterations are reviewed at molecular tumor boards to identify appropriate biomarker-matched therapeutic sub-studies. Seven GI cancer patients with durable clinical benefit were identified by case review, including a patient with KRAS WT pancreatic cancer harboring an ATP1B1-NRG1 gene fusion. Neuregulin 1 (NRG1) gene fusion proteins are an important oncogenic driver, enriched amongst KRAS wild-type PDAC (8-10%) (Aguirre A J., Clin. Cancer Res. 2019 August; 25(15)). NRG1 is the predominant ligand of ERBB3. These fusion proteins drive tumor progression through aberrant ERBB3 activation. […] The patient had previously exhausted available therapies and had been treated as follows: (1) October 2019 to January 2020, FOLFIRINOX, (2) January 2020 to June 2020, FOLFIRI, (3) June 2020 to August 2020, Gemcitabine/Abraxane, (4) August 2020 to December 2020, FOLFIRI.

Series [2] deals with HER3 and AKT phosphorylation in H6c7-SLC3A2-NRG1 cells. Nature of the series: Western blotting of HER3 and AKT phosphorylation. In kind it is cell-based, human. The note with it: serum-starved 24 hours. From the text: (§1) H6C7-EV (empty vector) and H6C7-ATP1B1-NRG1 cells were profiled for activated intracellular kinases using phospho-proteomic arrays (FIG. 7A). H6C7-EV and H6C7 cells with the indicated NRG1 fusions were profiled for activated receptor tyrosine kinases (RTK) using phospho-RTK arrays (FIG. 7B). Quantitation of phosphorylated EGFR, HER2, and HER3 is shown (FIG. 7C). Western blot analysis of cell extracts from H6C7-EV and H6C7 cells expressing NRG1 fusions (FIGS. 7D-E). […] All cells were serum-started for 24 hours prior to experimentation.
(§2) Models of isogenic pancreatic cancer cells with NRG1 fusions by lentiviral-mediated cDNA expression of ATP1B1-NRG1 and SLC3A2-NRG1 fusions in immortalized human pancreatic ductal cells (H6c7) were developed. […] Western blotting analysis was used to evaluate protein phosphorylation and expression. The presence of NRG1 fusions was confirmed by reverse transcription polymerase chain reaction (RT-PCR) and next-generation sequencing (NGS).
(§3) There was no regression of afatinib-treated pancreatic PDX tumors. […] This was confirmed using a human-specific GAPH antibody.
Background: Immunoblotting shows a protein as a band on a membrane.

Series [3] concerns HER3 and AKT phosphorylation in H6c7-ATP1B1-NRG1 cells. Nature of the series: Western blotting of HER3 and AKT phosphorylation. In kind it is cell-based, human. The note with it: serum-starved 24 hours.
Description: as §1, §2, §3

Series [4] deals with EGFR, HER2, HER3, HER4, downstream signaling, apoptosis and cell-cycle proteins in MDA-MB-175-VII cells. Nature of the series: Western blotting of protein phosphorylation and expression. In kind it is cell-based, human. Here is the method: Whole-cell extracts were prepared after all treatments and subjected to SDS-PAGE, followed by immunoblotting for the phosphorylated (p) or total (t) proteins shown in each panel. All Western blotting studies were conducted at least two times and representative immunoblots of phosphorylated (p) and total (t) proteins are shown.
These events likely culminate in inhibition of growth and impaired survival.
As observed with phosphor-ylation of some proteins, cyclin D1 level began to be restored by 12 hours (FIG. 4D).

The subject of the next series is CH-17-0068 PDX tumors. Nature of the series: Intrahepatic cholangiocarcinoma PDX model (RBPMS-NRG1). The note with it: monotherapy seribantumab 5 mg and 10 mg per dose BIW vs afatinib 5 mg/kg QD. In kind it is in vivo, mice. Here is the method:
Representative H&E-stained CH-17-0068 PDX tumor (FIG. 9A). Genomic alterations identified by RNAseq and corresponding investigational targeted therapies (FIG. 9B). […] Afatinib (5 mg/kg QD) or AG-120 (isocitrate dehydrogenase [IDH] inhibitor, 150 mg/kg twice daily [BID]) were then added to the indicated groups. Results represent the mean±SEM. Change in the volume of individual tumors on day 30 (FIG. 9D) or at the end of the study (FIG. 9E).
as §2

The conditions of series [5]: n=847 patients treated; cited from earlier work.

B1: seribantumab: anti-ERBB3 (HER3) fully human monoclonal antibody; heavy and light chains SEQ ID NOs: 12 and 13 (antibody)
heavy: EVQLLESGGGLVQPGGSLRLSCAASGFTFSHYVMAWVRQAPGKGLEWVSSISSSGGWTLYADSVKGRFTISRDNSKNTLYLQMNSLRAEDTAVYYCTRGLKMATIFDYWGQGTLVTVSSASTKGPSVFPLAPCSRSTSESTAALGCLVKDYFPEPVTVSWNSGALTSGVHTFPAVLQSSGLYSLSSVVTVPSSNFGTQTYTCNVDHKPSNTKVDKTVERKCCVECPPCPAPPVAGPSVFLFPPKPKDTLMISRTPEVTCVVVDVSHEDPEVQFNWYVDGVEVHNAKTKPREEQFNSTFRVVSVLTVVHQDWLNGKEYKCKVSNKGLPAPIEKTISKTKGQPREPQVYTLPPSREEMTKNQVSLTCLVKGFYPSDIAVEWESNGQPENNYKTTPPMLDSDGSFFLYSKLTVDKSRWQQGNVFSCSVMHEALHNHYTQKSLSLSPGK
light: QSALTQPASVSGSPGQSITISCTGTSSDVGSYNVVSWYQQHPGKAPKLIIYEVSQRPSGVSNRFSGSKSGNTASLTISGLQTEDEADYYCCSYAGSSIFVIFGGGTKVTVLGQPKAAPSVTLFPPSSEELQANKATLVCLVSDFYPGAVTVAWKADGSPVKVGVETTKPSKQSNNKYAASSYLSLTPEQWKSHRSYSCRVTHEGSTVEKTVAPAECS
For the molecule B1, the “liver metastasis NTL1 liver seg 8 on CT” value in series [1] (June 2021, 26×26 mm before seribantumab) is “resolved”. Further, in series [1] (one patient), the “duration of ongoing treatment at data cutoff” value is at least 8 months. The tumor response result in series [1] (person, treated from December 2020) is “partial response”. Further, the “HER3 and AKT phosphorylation” value in series [2] was “dose-dependent inhibition”. In series [3], the “HER3 and AKT phosphorylation” value is “dose-dependent inhibition”. In addition, the “phosphorylation of AKT over time” value in series [4] (2 mmol/L seribantumab, up to 24 hours) was “remained completely inhibited for the entire 24-hour treatment period”. Also, the “expression of proapoptotic proteins cleaved-PARP and PUMA” value in series [4] (seribantumab, 6-24 hours) is “elevated”. In addition, in series [4] (seribantumab, up to 24 hours), the “level of cyclin D1” value was “undetectable by 6 hours”; the “time to full inhibition of phosphorylation of HER3, HER4, and downstream signaling” value was determined as 30 min. Further, the “phosphorylation of HER3, HER2, EGFR, and HER4” value in series [4] (serum-starved, 3 hours) is recorded as “fully inhibited”. For the same molecule, the “efficacy compared with afatinib” value in the series on CH-17-0068 PDX tumors was “equally effective as afatinib”. Also, in series [5], the “grade of infusion related reactions” value is listed as “Grade 1 or 2” and the “patients experiencing an infusion related reaction” value is under 1%.

(Values after patent US20220288204A1, “DOSAGE AND ADMINISTRATION OF ANTI-ERBB3 (HER3) MONOCLONAL ANTIBODIES TO TREAT TUMORS ASSOCIATED WITH NEUREGULIN 1 (NRG1) GENE FUSIONS” (ELEVATION ONCOLOGY, INC., priority 2021, published 2022).)
